From publication PMC9482650, “Quantitative fragmentomics allow affinity mapping of interactomes” (Nature Communications, 2022)

Columns and labels:
Assay in all cases: holdup assay
Design in all cases: key: below the threshold = too weak to quantify, mostly under pKd 3.1 to 4
Settings in all cases: plain residues with an end cap or a label only (N-terminal biotin on a linker: ttds)
[1] = molecular target: SDCBP_1, O00560
[2] = molecular target: MAGI3_3, Q5TCQ9
[3] = molecular target: T1, APBA3_2, O96018
T1 sequence (O96018 480-570, limits assumed, looked up): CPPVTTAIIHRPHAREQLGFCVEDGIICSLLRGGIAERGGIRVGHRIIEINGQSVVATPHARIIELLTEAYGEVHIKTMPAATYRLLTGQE

[4] = molecular target: T2, PDZD7_2, Q9H5P4
T2 sequence (Q9H5P4 205-303, limits assumed, looked up): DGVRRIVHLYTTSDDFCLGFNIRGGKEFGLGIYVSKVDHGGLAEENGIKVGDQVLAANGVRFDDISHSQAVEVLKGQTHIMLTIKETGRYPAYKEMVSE

[5] = molecular target: T3, SNTA1, Q13424
T3 sequence (Q13424 82-180, limits assumed, looked up): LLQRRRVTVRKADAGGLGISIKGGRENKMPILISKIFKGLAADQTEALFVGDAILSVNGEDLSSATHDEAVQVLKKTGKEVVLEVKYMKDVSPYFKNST

[6] = molecular target: T4, MPP5, Q8N3R9
T4 sequence (Q8N3R9 251-346, limits assumed, looked up): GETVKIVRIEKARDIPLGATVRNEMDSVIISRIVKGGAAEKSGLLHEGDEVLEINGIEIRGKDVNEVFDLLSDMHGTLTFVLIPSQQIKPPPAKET

[7] = molecular target: PDZD9, Q8IXQ8
PDZD9, Q8IXQ8, sequence (Q8IXQ8 23-120): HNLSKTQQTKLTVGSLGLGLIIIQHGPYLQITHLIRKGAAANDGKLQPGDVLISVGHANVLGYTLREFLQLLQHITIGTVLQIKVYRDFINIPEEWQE

[8] = molecular target: T5, SHANK2, Q9UPX8
T5 sequence (Q9UPX8 621-730, limits assumed, looked up): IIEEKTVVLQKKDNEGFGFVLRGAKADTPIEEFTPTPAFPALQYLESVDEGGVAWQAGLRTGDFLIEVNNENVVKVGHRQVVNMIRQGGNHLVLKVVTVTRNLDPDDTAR

[9] = molecular target: GRIP2_2, Q9C0E4
GRIP2_2, Q9C0E4, sequence (Q9C0E4 137-245): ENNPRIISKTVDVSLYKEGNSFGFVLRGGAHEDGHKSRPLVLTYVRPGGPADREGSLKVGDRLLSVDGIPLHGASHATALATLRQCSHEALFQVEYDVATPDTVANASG

[10] = molecular target: T6, PARD6B, Q9BYG5
T6 sequence (Q9BYG5 152-260, limits assumed, looked up): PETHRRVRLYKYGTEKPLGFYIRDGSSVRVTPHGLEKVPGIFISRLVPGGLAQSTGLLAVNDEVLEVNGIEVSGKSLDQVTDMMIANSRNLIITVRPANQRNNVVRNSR

[11] = molecular target: T7, PDZD2_3, O15018
T7 sequence (O15018 581-682, limits assumed, looked up): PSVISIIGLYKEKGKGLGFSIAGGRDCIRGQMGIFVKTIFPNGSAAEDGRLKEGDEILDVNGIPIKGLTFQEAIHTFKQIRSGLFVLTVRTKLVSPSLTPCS

[12] = molecular target: PREX1_1, Q8TCU6
PREX1_1, Q8TCU6, sequence (Q8TCU6 608-718): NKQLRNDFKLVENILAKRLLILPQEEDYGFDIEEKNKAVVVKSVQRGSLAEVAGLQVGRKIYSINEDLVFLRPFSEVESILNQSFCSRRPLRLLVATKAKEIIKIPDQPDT

[13] = molecular target: NHERF2_1, Q15599
NHERF2_1, Q15599, sequence (Q15599 9-91): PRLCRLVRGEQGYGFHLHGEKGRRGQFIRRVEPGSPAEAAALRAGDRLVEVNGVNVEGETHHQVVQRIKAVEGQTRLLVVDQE

[14] = molecular target: T8, MPDZ_3, O75970
T8 sequence (O75970 372-473, limits assumed, looked up): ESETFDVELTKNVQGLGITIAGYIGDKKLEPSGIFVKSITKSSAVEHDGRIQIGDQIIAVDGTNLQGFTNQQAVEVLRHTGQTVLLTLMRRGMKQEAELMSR

[15] = molecular target: T9, SHANK3, Q9BYB0
T9 sequence (Q9BYB0 641-750, limits assumed, looked up): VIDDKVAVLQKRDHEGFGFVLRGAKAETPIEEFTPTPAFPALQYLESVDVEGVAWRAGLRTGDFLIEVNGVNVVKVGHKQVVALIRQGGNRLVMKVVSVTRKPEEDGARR

[16] = molecular target: T10, PDZD8, Q8NEN9
T10 sequence (Q8NEN9 361-459, limits assumed, looked up): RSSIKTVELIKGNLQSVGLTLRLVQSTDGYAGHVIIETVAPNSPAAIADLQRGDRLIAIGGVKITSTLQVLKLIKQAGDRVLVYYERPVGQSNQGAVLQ

[17] = molecular target: PDZRN4_2, Q6ZMN7
PDZRN4_2, Q6ZMN7, sequence (Q6ZMN7 389-498): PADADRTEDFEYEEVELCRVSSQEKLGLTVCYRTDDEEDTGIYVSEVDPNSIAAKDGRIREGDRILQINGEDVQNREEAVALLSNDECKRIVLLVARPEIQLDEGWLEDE

[18] = molecular target: T11, PARD6G, Q9BYG4
T11 sequence (Q9BYG4 153-261, limits assumed, looked up): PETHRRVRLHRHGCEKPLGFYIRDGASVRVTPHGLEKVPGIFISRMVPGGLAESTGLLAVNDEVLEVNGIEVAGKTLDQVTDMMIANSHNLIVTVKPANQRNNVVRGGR

[19] = molecular target: AHNAK2, Q8IVF2
AHNAK2, Q8IVF2, sequence (Q8IVF2 108-193): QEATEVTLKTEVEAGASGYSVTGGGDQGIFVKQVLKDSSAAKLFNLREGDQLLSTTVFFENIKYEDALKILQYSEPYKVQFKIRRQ

[20] = molecular target: MAGI1_4, Q96QZ7
MAGI1_4, Q96QZ7, sequence (Q96QZ7 other isoform, or with tags, fused parts or gaps): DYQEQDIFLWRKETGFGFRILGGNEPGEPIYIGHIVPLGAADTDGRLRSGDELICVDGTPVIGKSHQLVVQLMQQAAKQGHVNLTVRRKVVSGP

[21] = molecular target: MAST3, O60307
MAST3, O60307, sequence (O60307 945-1048): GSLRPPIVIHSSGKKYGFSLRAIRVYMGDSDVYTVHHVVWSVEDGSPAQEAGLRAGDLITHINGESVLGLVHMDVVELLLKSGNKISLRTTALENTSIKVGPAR

[22] = molecular target: RIMS2, Q9UQ26
RIMS2, Q9UQ26, sequence (Q9UQ26 637-758): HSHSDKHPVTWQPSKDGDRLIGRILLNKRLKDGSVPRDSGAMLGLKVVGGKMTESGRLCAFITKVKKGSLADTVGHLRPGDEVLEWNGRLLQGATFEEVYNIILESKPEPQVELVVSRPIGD

[23] = molecular target: DLG2_1, Q15700
[24] = molecular target: T12, PTPN13_5, Q12923
T12 sequence (Q12923 1877-1975, limits assumed, looked up): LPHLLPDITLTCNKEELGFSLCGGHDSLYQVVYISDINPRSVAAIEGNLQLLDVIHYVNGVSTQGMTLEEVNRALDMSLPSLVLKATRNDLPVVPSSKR

[25] = molecular target: MAGI1_3, Q96QZ7
MAGI1_3, Q96QZ7, sequence (Q96QZ7 638-725): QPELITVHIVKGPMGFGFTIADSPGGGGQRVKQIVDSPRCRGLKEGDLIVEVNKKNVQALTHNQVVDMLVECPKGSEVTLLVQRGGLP

MAGI3_3, Q5TCQ9, sequence (Q5TCQ9 572-655): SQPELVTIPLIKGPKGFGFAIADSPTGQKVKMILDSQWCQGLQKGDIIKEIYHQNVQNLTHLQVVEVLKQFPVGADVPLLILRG
SDCBP_1, O00560, sequence (O00560 111-198): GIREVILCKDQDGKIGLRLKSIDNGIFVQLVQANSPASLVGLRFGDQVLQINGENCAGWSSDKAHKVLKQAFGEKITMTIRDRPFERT

## RTRQRNETQV [HPV51-E6, P26554]
[1]
  pKd: below the threshold
[2]
  pKd: below the threshold
[3]
  pKd: below the threshold
[4]
  pKd: below the threshold
[5]
  pKd: 4.23
[6]
  pKd: below the threshold
[7]
  pKd: below the threshold
[8]
  pKd: below the threshold
[9]
  pKd: below the threshold
[10]
  pKd: below the threshold
[11]
  pKd: 4.22
[12]
  pKd: below the threshold
[13]
  pKd: below the threshold
[14]
  pKd: below the threshold
[15]
  pKd: below the threshold
[16]
  pKd: below the threshold
[17]
  pKd: below the threshold
[18]
  pKd: below the threshold
[19]
  pKd: below the threshold
[20]
  pKd: below the threshold
[21]
  pKd: below the threshold
[22]
  pKd: below the threshold
[23]
  pKd: 5.06
[24]
  pKd: below the threshold
[25]
  pKd: below the threshold
